Results as given in publication PMC9352680, “A comprehensive thermodynamic model for RNA binding by the Saccharomyces cerevisiae Pumilio protein PUF4”.

Target: T1, PUF4 RNA-binding domain (Saccharomyces cerevisiae, UniProt P25339 537-888)
T1 sequence: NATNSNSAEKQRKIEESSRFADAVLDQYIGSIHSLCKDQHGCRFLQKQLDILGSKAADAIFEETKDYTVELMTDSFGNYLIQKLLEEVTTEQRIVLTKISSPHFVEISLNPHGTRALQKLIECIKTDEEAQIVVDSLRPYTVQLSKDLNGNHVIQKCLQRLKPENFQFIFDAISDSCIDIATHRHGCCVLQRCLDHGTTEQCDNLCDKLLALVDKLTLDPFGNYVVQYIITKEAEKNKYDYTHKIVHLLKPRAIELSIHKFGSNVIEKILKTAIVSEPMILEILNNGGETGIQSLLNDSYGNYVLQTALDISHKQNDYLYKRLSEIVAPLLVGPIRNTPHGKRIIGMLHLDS
Assay: Mg; RNA-MaP; 20 mM Na-HEPES pH 7.4, 30 mM KOAc, 0.75 mM MgCl2, 0.1% Tween-20, 5% glycerol, 0.1 mg/mL BSA, 2 mM DTT; 25 C; 0.0125-409.6 nM protein
Details: tags: N-His6-TEV cleaved; C-SNAP kept, Cy3B-labelled; label: tethered on chip by stalled RNA polymerase

B1: Ib_S2_P5E.1_K5.1_C5.1_H5.1_A5.1_F5.1_[T8C]_[T9C]_T5.1 (ssRNA)
RNA: UUUGAUUAAUAUGAUAUCGUUCUUUCUUGUAUUACCAUUCUUUCUCGAUAUCAUAUUAAUCUUU
Kd: 321 nM

B2: Ib_S2_P5E.1_K5.1_C5.1_H5.1_[G2C]_A5.1_F5.1_[A10T]_T5.1 (ssRNA)
RNA: UUUGAUUAAUAUGAUAUCGUUCUUUCUUCUAUUAUUUUUCUUUCUCGAUAUCAUAUUAAUCUUU
Kd: 1700 nM

B3: Ib_S2_P5E.1_K5.1_C5.1_H5.1_A5.1_F5.1_[T9A]_[A10C]_T5.1 (ssRNA)
RNA: UUUGAUUAAUAUGAUAUCGUUCUUUCUUGUAUUAUACUUCUUUCUCGAUAUCAUAUUAAUCUUU
Kd: 7.25 nM

B4: Ib_S2_P5E.1_K5.1_C5.1_H5.1_[G2A]_A5.1_F5.1_[T8G]_T5.1 (ssRNA)
RNA: UUUGAUUAAUAUGAUAUCGUUCUUUCUUAUAUUAGUAUUCUUUCUCGAUAUCAUAUUAAUCUUU
Kd: 695 nM

B5: Ib_S2_P5E.1_K5.1_C5.1_H5.1_[T1A]_A5.1_F5.1_[T9C]_T5.1 (ssRNA)
RNA: UUUGAUUAAUAUGAUAUCGUUCUUUCUAGUAUUAUCAUUCUUUCUCGAUAUCAUAUUAAUCUUU
Kd: > 2300 nM

B6: Ib_S2_P5E.1_K5.1_C5.1_H5.1_[T1C]_A5.1_F5.1_[A10C]_T5.1 (ssRNA)
RNA: UUUGAUUAAUAUGAUAUCGUUCUUUCUCGUAUUAUUCUUCUUUCUCGAUAUCAUAUUAAUCUUU
Kd: 2010 nM

B7: Ib_S2_P5E.1_K5.1_C5.1_H5.1_[G2C]_A5.1_F5.1_[T9A]_T5.1 (ssRNA)
RNA: UUUGAUUAAUAUGAUAUCGUUCUUUCUUCUAUUAUAAUUCUUUCUCGAUAUCAUAUUAAUCUUU
Kd: 1690 nM

B8: Ib_S2_P5E.1_K5.1_C5.1_H5.1_A5.1_F5.1_[T8A]_[A10C]_T5.1 (ssRNA)
RNA: UUUGAUUAAUAUGAUAUCGUUCUUUCUUGUAUUAAUCUUCUUUCUCGAUAUCAUAUUAAUCUUU
Kd: 181 nM

B9: Ib_S2_P5E.1_K5.1_C5.1_H5.1_A5.1_F5.1_[T9C]_[A10C]_T5.1 (ssRNA)
RNA: UUUGAUUAAUAUGAUAUCGUUCUUUCUUGUAUUAUCCUUCUUUCUCGAUAUCAUAUUAAUCUUU
Kd: 19.4 nM

B10: Ib_S2_P5E.1_K5.1_C5.1_H5.1_[A4C]_A5.1_F5.1_[T8C]_T5.1 (ssRNA)
RNA: UUUGAUUAAUAUGAUAUCGUUCUUUCUUGUCUUACUAUUCUUUCUCGAUAUCAUAUUAAUCUUU
Kd: 39.2 nM

B11: Ib_S2_P5E.1_K5.1_C5.1_H5.1_[G2A]_A5.1_F5.1_[T9C]_T5.1 (ssRNA)
RNA: UUUGAUUAAUAUGAUAUCGUUCUUUCUUAUAUUAUCAUUCUUUCUCGAUAUCAUAUUAAUCUUU
Kd: 429 nM

B12: Ib_S2_P5E.1_K5.1_C5.1_H5.1_A5.1_F5.1_[T9A]_[A10T]_T5.1 (ssRNA)
RNA: UUUGAUUAAUAUGAUAUCGUUCUUUCUUGUAUUAUAUUUCUUUCUCGAUAUCAUAUUAAUCUUU
Kd: 0.947 nM

B13: Ib_S2_P5E.1_K5.1_C5.1_H5.1_[A4T]_A5.1_F5.1_[T9C]_T5.1 (ssRNA)
RNA: UUUGAUUAAUAUGAUAUCGUUCUUUCUUGUUUUAUCAUUCUUUCUCGAUAUCAUAUUAAUCUUU
Kd: 1480 nM

B14: Ib_S2_P5E.1_K5.1_C5.1_H5.1_A5.1_F5.1_[T8C]_[A10T]_T5.1 (ssRNA)
RNA: UUUGAUUAAUAUGAUAUCGUUCUUUCUUGUAUUACUUUUCUUUCUCGAUAUCAUAUUAAUCUUU
Kd: 64.6 nM

B15: Ib_S2_P5E.1_K5.1_C5.1_H5.1_A5.1_F5.1_[T9A]_[A10G]_T5.1 (ssRNA)
RNA: UUUGAUUAAUAUGAUAUCGUUCUUUCUUGUAUUAUAGUUCUUUCUCGAUAUCAUAUUAAUCUUU
Kd: 3.11 nM

B16: Ib_S2_P5E.1_K5.1_C5.1_H5.1_A5.1_F5.1_[T8C]_[A10G]_T5.1 (ssRNA)
RNA: UUUGAUUAAUAUGAUAUCGUUCUUUCUUGUAUUACUGUUCUUUCUCGAUAUCAUAUUAAUCUUU
Kd: 64.4 nM

B17: Ib_S2_P5E.1_K5.1_C5.1_H5.1_[G2A]_A5.1_F5.1_[A10G]_T5.1 (ssRNA)
RNA: UUUGAUUAAUAUGAUAUCGUUCUUUCUUAUAUUAUUGUUCUUUCUCGAUAUCAUAUUAAUCUUU
Kd: 420 nM

B18: Ib_S2_P5E.1_K5.1_C5.1_H5.1_[T3C]_A5.1_F5.1_[T8C]_T5.1 (ssRNA)
RNA: UUUGAUUAAUAUGAUAUCGUUCUUUCUUGCAUUACUAUUCUUUCUCGAUAUCAUAUUAAUCUUU
Kd: 562 nM

B19: Ib_S2_P5E.1_K5.1_C5.1_H5.1_[T3C]_A5.1_F5.1_[T8A]_T5.1 (ssRNA)
RNA: UUUGAUUAAUAUGAUAUCGUUCUUUCUUGCAUUAAUAUUCUUUCUCGAUAUCAUAUUAAUCUUU
Kd: 1260 nM

B20: Ib_S2_P5E.1_K5.1_C5.1_H5.1_[T3C]_A5.1_F5.1_[T9A]_T5.1 (ssRNA)
RNA: UUUGAUUAAUAUGAUAUCGUUCUUUCUUGCAUUAUAAUUCUUUCUCGAUAUCAUAUUAAUCUUU
Kd: 608 nM

B21: Ia_S2_P5E.1_K5.1_C5.1_H5.1_A5.1_F5.1_[T8G]_T5.1 (ssRNA)
RNA: UUUGAUUAAUAUGAUAUCGUUCUUUCUUGUAUUAGUAUUCUUUCUCGAUAUCAUAUUAAUCUUU
Kd: 26.8 nM

B22: Ib_S2_P5E.1_K5.1_C5.1_H5.1_[T1C]_A5.1_F5.1_[A10G]_T5.1 (ssRNA)
RNA: UUUGAUUAAUAUGAUAUCGUUCUUUCUCGUAUUAUUGUUCUUUCUCGAUAUCAUAUUAAUCUUU
Kd: 1750 nM

B23: Ib_S2_P5E.1_K5.1_C5.1_H5.1_[T1A]_A5.1_F5.1_[A10T]_T5.1 (ssRNA)
RNA: UUUGAUUAAUAUGAUAUCGUUCUUUCUAGUAUUAUUUUUCUUUCUCGAUAUCAUAUUAAUCUUU
Kd: > 2300 nM

B24: Ib_S2_P5E.1_K5.1_C5.1_H5.1_A5.1_F5.1_[T9G]_[A10T]_T5.1 (ssRNA)
RNA: UUUGAUUAAUAUGAUAUCGUUCUUUCUUGUAUUAUGUUUCUUUCUCGAUAUCAUAUUAAUCUUU
Kd: 3.65 nM

B25: Ib_S2_P5E.1_K5.1_C5.1_H5.1_[G2T]_A5.1_F5.1_[A10C]_T5.1 (ssRNA)
RNA: UUUGAUUAAUAUGAUAUCGUUCUUUCUUUUAUUAUUCUUCUUUCUCGAUAUCAUAUUAAUCUUU
Kd: > 2300 nM

B26: Ic_S2_P5E.1_K5.1_C5.1_H5.1_A5.1_F5.1_[T9C]_[A10T]_T5.1 (ssRNA)
RNA: UUUGAUUAAUAUGAUAUCGUUCUUUCUUGUAUUAUCUUUCUUUCUCGAUAUCAUAUUAAUCUUU
Kd: 17.6 nM

B27: Ib_S2_P5E.1_K5.1_C5.1_H5.1_[A4T]_A5.1_F5.1_[T8C]_T5.1 (ssRNA)
RNA: UUUGAUUAAUAUGAUAUCGUUCUUUCUUGUUUUACUAUUCUUUCUCGAUAUCAUAUUAAUCUUU
Kd: 25 nM

B28: Ib_S2_P5E.1_K5.1_C5.1_H5.1_[G2C]_A5.1_F5.1_[A10G]_T5.1 (ssRNA)
RNA: UUUGAUUAAUAUGAUAUCGUUCUUUCUUCUAUUAUUGUUCUUUCUCGAUAUCAUAUUAAUCUUU
Kd: > 2300 nM

B29: Ib_S2_P5E.1_K5.1_C5.1_H5.1_[A4T]_A5.1_F5.1_[T8A]_T5.1 (ssRNA)
RNA: UUUGAUUAAUAUGAUAUCGUUCUUUCUUGUUUUAAUAUUCUUUCUCGAUAUCAUAUUAAUCUUU
Kd: 27.9 nM

B30: Ib_S2_P5E.1_K5.1_C5.1_H5.1_[G2A]_A5.1_F5.1_[A10C]_T5.1 (ssRNA)
RNA: UUUGAUUAAUAUGAUAUCGUUCUUUCUUAUAUUAUUCUUCUUUCUCGAUAUCAUAUUAAUCUUU
Kd: 294 nM

B31: Ib_S2_P5E.1_K5.1_C5.1_H5.1_[T1A]_A5.1_F5.1_[A10C]_T5.1 (ssRNA)
RNA: UUUGAUUAAUAUGAUAUCGUUCUUUCUAGUAUUAUUCUUCUUUCUCGAUAUCAUAUUAAUCUUU
Kd: > 2300 nM

B32: Ia_S2_P4E.1_K4.1_C4.1_H4.1_A4.1_[A6G]_F4.1_T4.1 (ssRNA)
RNA: UUUGAUUAAUAUGAUAUCGUUCUUUCUUGUAUGUUAUUCUUUCUCGAUAUCAUAUUAAUCUUU
Kd: 2.55 nM

B33: Ib_S2_P4E.1_K4.1_C4.1_H4.1_A4.1_[A6C]_[T7G]_F4.1_T4.1 (ssRNA)
RNA: UUUGAUUAAUAUGAUAUCGUUCUUUCUUGUAUCGUAUUCUUUCUCGAUAUCAUAUUAAUCUUU
Kd: 8.48 nM

B34: Ib_S2_P4E.1_K4.1_C4.1_H4.1_A4.1_[T5A]_[T7A]_F4.1_T4.1 (ssRNA)
RNA: UUUGAUUAAUAUGAUAUCGUUCUUUCUUGUAAAAUAUUCUUUCUCGAUAUCAUAUUAAUCUUU
Kd: 1.83 nM

B35: Ic_S2_P4E.1_K4.1_C4.1_H4.1_A4.1_[A6T]_[T7A]_F4.1_T4.1 (ssRNA)
RNA: UUUGAUUAAUAUGAUAUCGUUCUUUCUUGUAUUAUAUUCUUUCUCGAUAUCAUAUUAAUCUUU
Kd: 0.912 nM

B36: Ic_S2_P4E.1_K4.1_C4.1_H4.1_A4.1_[A6C]_[T7A]_F4.1_T4.1 (ssRNA)
RNA: UUUGAUUAAUAUGAUAUCGUUCUUUCUUGUAUCAUAUUCUUUCUCGAUAUCAUAUUAAUCUUU
Kd: 0.595 nM

B37: Ic_S2_P4E.1_K4.1_C4.1_H4.1_A4.1_[A6G]_[T7C]_F4.1_T4.1 (ssRNA)
RNA: UUUGAUUAAUAUGAUAUCGUUCUUUCUUGUAUGCUAUUCUUUCUCGAUAUCAUAUUAAUCUUU
Kd: 2.71 nM

B38: Ia_S2_P4E.1_K4.1_C4.1_H4.1_A4.1_[A6C]_F4.1_T4.1 (ssRNA)
RNA: UUUGAUUAAUAUGAUAUCGUUCUUUCUUGUAUCUUAUUCUUUCUCGAUAUCAUAUUAAUCUUU
Kd: 1.21 nM

B39: Ic_S2_P4E.1_K4.1_C4.1_H4.1_A4.1_[A6T]_[T7G]_F4.1_T4.1 (ssRNA)
RNA: UUUGAUUAAUAUGAUAUCGUUCUUUCUUGUAUUGUAUUCUUUCUCGAUAUCAUAUUAAUCUUU
Kd: 4.85 nM

B40: Ic_S2_P4E.1_K4.1_C4.1_H4.1_A4.1_[A6T]_[T7C]_F4.1_T4.1 (ssRNA)
RNA: UUUGAUUAAUAUGAUAUCGUUCUUUCUUGUAUUCUAUUCUUUCUCGAUAUCAUAUUAAUCUUU
Kd: 1 nM

B41: Ic_S2_P4E.1_K4.1_C4.1_H4.1_A4.1_[A6C]_[T7C]_F4.1_T4.1 (ssRNA)
RNA: UUUGAUUAAUAUGAUAUCGUUCUUUCUUGUAUCCUAUUCUUUCUCGAUAUCAUAUUAAUCUUU
Kd: 1.76 nM

B42: Ia_S2_P4E.1_K4.1_C4.1_H4.1_A4.1_[T7G]_F4.1_T4.1 (ssRNA)
RNA: UUUGAUUAAUAUGAUAUCGUUCUUUCUUGUAUAGUAUUCUUUCUCGAUAUCAUAUUAAUCUUU
Kd: 1.05 nM

B43: Ib_S2_P4E.1_K4.1_C4.1_H4.1_A4.1_[T5A]_[T7C]_F4.1_T4.1 (ssRNA)
RNA: UUUGAUUAAUAUGAUAUCGUUCUUUCUUGUAAACUAUUCUUUCUCGAUAUCAUAUUAAUCUUU
Kd: 1.21 nM

B44: Ia_S2_P4E.1_K4.1_C4.1_H4.1_A4.1_[T7A]_F4.1_T4.1 (ssRNA)
RNA: UUUGAUUAAUAUGAUAUCGUUCUUUCUUGUAUAAUAUUCUUUCUCGAUAUCAUAUUAAUCUUU
Kd: 0.749 nM

B45: Ib_S2_P4E.1_K4.1_C4.1_H4.1_A4.1_[T5C]_[T7C]_F4.1_T4.1 (ssRNA)
RNA: UUUGAUUAAUAUGAUAUCGUUCUUUCUUGUACACUAUUCUUUCUCGAUAUCAUAUUAAUCUUU
Kd: 0.279 nM
